In the Immune Epitope Database (IEDB):
pIC50, pKd: −log10 of the molar value.

Columns and labels:
HLA-A*03:01 = assay: IEDB peptide-MHC binding, purified MHC/competitive/radioactivity; filed as Kd, often an IC50 or EC50 that approximates it; ≥ and ≤ were set here for values at or beyond the usual limits of such assays; settings: source organism: Vaccinia virus WR
HLA-A*11:01 = assay: as above; settings: source organism: Vaccinia virus WR
HLA-A*29:02 = assay: as above
HLA-A*31:01 = assay: as above; settings: source organism: Vaccinia virus WR
HLA-A*33:01 = assay: as above; settings: source organism: Vaccinia virus WR
HLA-A*68:01 = assay: as above; settings: source organism: Vaccinia virus WR
HLA-A*02:02 = assay: as above
HLA-A*02:03 = assay: as above
HLA-A*02:06 = assay: as above
HLA-A*26:01 = assay: as above
HLA-A*01:01 = assay: as above
HLA-A*30:02 = assay: as above
HLA-A*23:01 = assay: as above
HLA-A*24:02 = assay: as above
HLA-B*58:01 = assay: IEDB peptide-MHC binding, purified MHC/direct/fluorescence; filed as Kd, often an IC50 or EC50 that approximates it; ≥ and ≤ were set here for values at or beyond the usual limits of such assays; settings: source organism: Mammarenavirus juninense
HLA-A*02:01 [1] = assay: IEDB peptide-MHC binding, purified MHC/competitive/fluorescence; ≥ and ≤ were set here for values at or beyond the usual limits of such assays
HLA-A*02:01 [2] = assay: IEDB peptide-MHC binding, purified MHC/direct/fluorescence; filed as Kd, often an IC50 or EC50 that approximates it; ≥ and ≤ were set here for values at or beyond the usual limits of such assays; settings: source organism: Giardia intestinalis
HLA-B*15:01 = assay: as above; settings: source organism: Salmonella enterica subsp. enterica serovar Typhimurium
[3] = source organism: Vaccinia virus WR
[4] = source organism: SARS coronavirus Tor2
[5] = source organism: Dengue virus 3 Martinique/1243/1999
[6] = source organism: Dengue virus 1 Brazil/97-11/1997
[7] = source organism: Dengue virus 2 Jamaica/1409/1983
[8] = source organism: Zaire ebolavirus
[9] = source organism: Dengue virus 4 Philippines/H241/1956
[10] = source organism: Sudan ebolavirus
[11] = source organism: Mammarenavirus brazilense
[12] = source organism: Mammarenavirus guanaritoense
[13] = source organism: Variola major virus
[14] = source organism: Mammarenavirus juninense

Sequence: DMFLTSVINR
- pKd (HLA-A*03:01): 6.02
- pKd (HLA-A*11:01): 5.62
- pKd (HLA-A*29:02; [3]): ≤ 4.37
- pKd (HLA-A*31:01): 8.18
- pKd (HLA-A*33:01): 8.64
- pKd (HLA-A*68:01): 7.99

Sequence: FICNLLLLFV
- pKd (HLA-A*02:02; [4]): 8.61
- pKd (HLA-A*02:03; [4]): 7.84
- pKd (HLA-A*02:06; [4]): 8.40

Sequence: HTLIMIGSNA
- pKd (HLA-A*26:01; [5]): ≤ 4.64

Sequence: RTRLYDYFT
- pKd (HLA-A*02:02; [3]): 5.15
- pKd (HLA-A*02:03; [3]): 5.52
- pKd (HLA-A*02:06; [3]): ≤ 4.31

Sequence: ISQHNYRPGY
- pKd (HLA-A*01:01; [6]): 4.95
- pKd (HLA-A*30:02; [6]): 7.08

Sequence: IISYIILFIL
- pKd (HLA-A*02:02; [3]): 7.18
- pKd (HLA-A*02:03; [3]): 6.31
- pKd (HLA-A*02:06; [3]): 5.41

Sequence: NSEQGGRAY
- pKd (HLA-A*01:01; source organism: Dengue virus 1 Singapore/S275/1990): 6.50

Sequence: ALVSDCASTI
- pKd (HLA-A*02:02; [3]): 7.03
- pKd (HLA-A*02:03; [3]): 7.28
- pKd (HLA-A*02:06; [3]): 6.62

Sequence: ATLLAVSGVY
- pKd (HLA-A*01:01; [6]): 5.31
- pKd (HLA-A*26:01; [6]): 5.64
- pKd (HLA-A*30:02; [6]): 8.61

Sequence: ITVDDDGTM
- pKd (HLA-A*26:01; [5]): 4.86

Sequence: LWMASVEPHW
- pKd (HLA-A*23:01; [6]): 6.89
- pKd (HLA-A*24:02; [6]): 6.64

Sequence: FMNAVGHDW
- pKd (HLA-B*58:01): 7.15

Sequence: VFTTNIWLK
- pKd (HLA-A*23:01; [7]): ≤ 4.51

Sequence: EVNDTHYTV
- pKd (HLA-A*02:02; [3]): 6.88
- pKd (HLA-A*02:03; [3]): 6.94
- pKd (HLA-A*02:06; [3]): 5.32

Sequence: NTYKRSGIM
- pKd (HLA-A*26:01; [6]): 5.18

Sequence: TLFIDRGSI
- pKd (HLA-A*02:02; [3]): 5.68
- pKd (HLA-A*02:03; [3]): 6.10
- pKd (HLA-A*02:06; [3]): ≤ 4.11

Sequence: LMSFTILCLV
- pKd (HLA-A*02:02; [4]): 9.47
- pKd (HLA-A*02:03; [4]): 7.04
- pKd (HLA-A*02:06; [4]): 7.40

Sequence: GVAGLITGG
- pIC50 (HLA-A*02:01 [1]; [8]): ≤ 4.11

Sequence: GIKCIKKGV
- pIC50 (HLA-A*02:01 [1]; source organism: Vaccinia virus): ≤ 3.99

Sequence: SQMETDFLEL
- pKd (HLA-A*02:02; [4]): 6.64
- pKd (HLA-A*02:03; [4]): 6.22
- pKd (HLA-A*02:06; [4]): 7.69

Sequence: ISSTPFAEY
- pKd (HLA-A*01:01; [9]): 5.72
- pKd (HLA-A*30:02; [9]): 6.50

Sequence: QFLFQLNDT
- pIC50 (HLA-A*02:01 [1]; [10]): 4.97

Sequence: GLAGLQTDV
- pKd (HLA-A*02:01 [2]): 6.76

Sequence: KADAVVADL
- pKd (HLA-A*02:02; [3]): 5.29
- pKd (HLA-A*02:03; [3]): 4.91
- pKd (HLA-A*02:06; [3]): 5.66

Sequence: QLYTISSESL
- pKd (HLA-A*02:02; [3]): 7.14
- pKd (HLA-A*02:03; [3]): 6.61
- pKd (HLA-A*02:06; [3]): 5.32

Sequence: FRSGVPPKV
- pIC50 (HLA-A*02:01 [1]; [10]): ≤ 3.77

Sequence: LFQLIFFLT
- pKd (HLA-A*01:01; [11]): 5.48
- pKd (HLA-A*24:02; [11]): ≤ 4.65
- pKd (HLA-A*26:01; [11]): ≤ 4.11
- pKd (HLA-A*30:02; [11]): 5.22

Sequence: TWVTYGTCTT
- pKd (HLA-A*24:02; source organism: Dengue virus 2 Peru/IQT2913/1996): ≤ 4.15

Sequence: TTENAAYQVL
- pKd (HLA-A*02:02; [3]): ≤ 4.53
- pKd (HLA-A*02:03; [3]): ≤ 4.15
- pKd (HLA-A*02:06; [3]): ≤ 4.16

Sequence: WIPYFGPAA
- pIC50 (HLA-A*02:01 [1]; [8]): 6.05

Sequence: VLCSSSPTI
- pKd (HLA-A*23:01; [12]): 6.34
- pKd (HLA-A*24:02; [12]): 5.78
- pKd (HLA-A*29:02; [12]): ≤ 4.51

Sequence: PIPYSRVNHA
- pKd (HLA-A*02:02; [3]): 4.93
- pKd (HLA-A*02:03; [3]): 4.82
- pKd (HLA-A*02:06; [3]): 5.84

Sequence: YLGPRVCWL
- pKd (HLA-A*02:02; [3]): 9.05
- pKd (HLA-A*02:03; [3]): 8.47
- pKd (HLA-A*02:06; [3]): 7.63

Sequence: LMANLAPHLL
- pKd (HLA-A*02:02; [4]): 9.64
- pKd (HLA-A*02:03; [4]): 8.84
- pKd (HLA-A*02:06; [4]): 6.94

Sequence: ELIDGISLGL
- pKd (HLA-A*26:01; source organism: Dengue virus 4 Dominica/814669/1981): 6.30

Sequence: YQRPFGGQS
- pKd (HLA-B*15:01): 5.43

Sequence: LFWAVKPKI
- pKd (HLA-A*23:01; [11]): 5.67
- pKd (HLA-A*24:02; [11]): 5.56
- pKd (HLA-A*29:02; [11]): 5.03

Sequence: PRCRYVHKV
- pIC50 (HLA-A*02:01 [1]; [8]): ≤ 2.51

Sequence: NLDDVYSYI
- pKd (HLA-A*02:02; [13]): 9.14
- pKd (HLA-A*02:03; [13]): 7.02
- pKd (HLA-A*02:06; [13]): 7.04

Sequence: ALNIALVAV
- pKd (HLA-A*02:02; [14]): 7.82
- pKd (HLA-A*02:03; [14]): 8.35
- pKd (HLA-A*02:06; [14]): 6.43

Sequence: LTFIKTTLSL
- pKd (HLA-A*26:01; [6]): 4.94

Sequence: VLALYSPPL
- pKd (HLA-A*02:02; [3]): 9.65
- pKd (HLA-A*02:03; [3]): 9.39
- pKd (HLA-A*02:06; [3]): 7.49

Sequence: YIFFASFYYI
- pKd (HLA-A*02:02; [4]): 9.34
- pKd (HLA-A*02:03; [4]): 7.22
- pKd (HLA-A*02:06; [4]): 9.10

Sequence: QYIYMGEPLE
- pKd (HLA-A*24:02; [7]): 5.04

Sequence: ELPVKTDIV
- pKd (HLA-A*02:02; [3]): ≤ 4.64
- pKd (HLA-A*02:03; [3]): 5.09
- pKd (HLA-A*02:06; [3]): 4.94

Sequence: PYLGKREDQW
- pKd (HLA-A*23:01; [7]): 5.86
- pKd (HLA-A*24:02; [7]): 5.53

Sequence: QKAALSEGVY
- pKd (HLA-A*30:02; source organism: Dengue virus 4 Singapore/8976/1995): 6.86

Sequence: KLPTLFGRGV
- pKd (HLA-A*02:02; [3]): 6.72
- pKd (HLA-A*02:03; [3]): 7.49
- pKd (HLA-A*02:06; [3]): 7.28
